Assay results: US20230227537A1
Values joined by “and” are separate entries in the source; they are usually repeats but may differ in a detail not shown here. Identical values can stand only once.

Molecular target: Mouse IgG1 Fc fused SARS-CoV-2 RBD (Sino Biological) (SARS-CoV-2; mouse), P0DTC2
Conditions: remark: other sources report otherwise

B1: VHH72_S56A-Fc (P. pastoris) (Fc fusion)
chain: QVQLQESGGGLVQAGGSLRLSCAASGRTFSEYAMGWFRQAPGKEREFVATISWSGGATYYTDSVKGRFTISRDNAKNTVYLQMNSLKPDDTAVYYCAAAGLGTVVSEWDYDYDYWGQGTQVTVSS
In the case of B1, the % Signal decrease over 8 min dissociation is reported as 6% and 7%, the Kd is reported as 0.0496 nM and 0.0541 nM and the koff is reported as 0.000123 s⁻¹ and 0.000146 s⁻¹. The kon was 2.48e+06 M⁻¹ s⁻¹ and 2.69e+06 M⁻¹ s⁻¹.
